# Source: article doi:10.1101/2023.05.09.539743 (bioRxiv, 2023)
# B1: His-MBP-Z1^11-35(WT) (domain or fragment, human, UniProt O60293 11-35, looked up)
# chain: SSGLSPKEEGELEDGEISDDDNNSQ
# Target: T1, His-ARS2^147-871 (human, UniProt Q9BXP5-4 147-871)
# T1 sequence (looked up): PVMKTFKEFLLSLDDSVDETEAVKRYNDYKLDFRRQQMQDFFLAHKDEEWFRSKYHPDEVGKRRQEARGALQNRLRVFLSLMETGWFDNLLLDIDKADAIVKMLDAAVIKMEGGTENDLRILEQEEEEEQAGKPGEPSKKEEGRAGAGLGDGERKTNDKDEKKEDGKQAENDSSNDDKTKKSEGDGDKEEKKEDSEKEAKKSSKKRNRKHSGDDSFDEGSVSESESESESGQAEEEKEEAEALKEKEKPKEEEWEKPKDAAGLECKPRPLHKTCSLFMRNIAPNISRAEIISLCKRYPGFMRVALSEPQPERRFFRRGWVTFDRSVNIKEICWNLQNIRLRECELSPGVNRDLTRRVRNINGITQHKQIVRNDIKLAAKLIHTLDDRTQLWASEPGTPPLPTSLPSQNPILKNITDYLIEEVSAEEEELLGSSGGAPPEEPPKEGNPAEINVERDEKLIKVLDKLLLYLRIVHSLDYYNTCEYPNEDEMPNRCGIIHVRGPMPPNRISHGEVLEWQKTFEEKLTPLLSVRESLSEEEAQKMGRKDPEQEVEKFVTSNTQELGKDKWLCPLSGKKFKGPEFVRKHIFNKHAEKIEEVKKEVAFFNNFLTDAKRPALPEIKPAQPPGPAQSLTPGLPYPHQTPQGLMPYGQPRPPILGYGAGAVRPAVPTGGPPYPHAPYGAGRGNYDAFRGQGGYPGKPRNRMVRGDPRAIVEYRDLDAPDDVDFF
# Test: pull-down
binder,measurement,value
B1,binding result,binds
